Results taken from the supplement of paper PMC9112550, “Optimization of the antimicrobial peptide Bac7 by deep mutational scanning” (BMC Biology, 2022).

Test system: Escherichia coli TOP10
Test: shrunken log2 fold change of peptide-encoding DNA abundance (4.5 h post-induction vs induction); higher = less antimicrobial activity (less host growth inhibition)
Conditions: time post-induction: 4.5 h; library: site-saturation at positions 5, 18, 19, 20
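Further: peptides expressed intracellularly from a pBAD plasmid library in pooled LB shake-flask culture, induced with 0.3% L-arabinose, DNA abundance read by NGS, three biological replicates, DESeq2 with apeglm shrinkage.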

Sequence	shrunken log2 fold change
RRIRFRPPRLPRPRPRPTLKPRP	-0.0426
RRIRERPPRLPRPRPRPMIIPRP	-0.317
RRIRLRPPRLPRPRPRPLTGPRP	-0.0782
RRIRIRPPRLPRPRPRPYQMPRP	-0.35
RRIRCRPPRLPRPRPRPNWTPRP	-0.0217
RRIRFRPPRLPRPRPRPCCDPRP	-0.239
RRIRHRPPRLPRPRPRPLPWPRP	0.108
RRIRNRPPRLPRPRPRPNEYPRP	-0.312
RRIRERPPRLPRPRPRPRTDPRP	0.193
RRIRSRPPRLPRPRPRPMAEPRP	0.348
RRIRFRPPRLPRPRPRPWPLPRP	-0.0977
RRIRARPPRLPRPRPRPLAHPRP	0.296
RRIRIRPPRLPRPRPRPVAHPRP	0.0168
RRIRYRPPRLPRPRPRPFNEPRP	-1.01
RRIRFRPPRLPRPRPRPGHQPRP	-0.233
RRIRLRPPRLPRPRPRPNYWPRP	-0.0686
RRIRMRPPRLPRPRPRPRVFPRP	0.947
RRIRDRPPRLPRPRPRPPYKPRP	-0.1
RRIRKRPPRLPRPRPRPPGHPRP	0.377
RRIRMRPPRLPRPRPRPLHWPRP	0.116
RRIRSRPPRLPRPRPRPIESPRP	-0.385
RRIRFRPPRLPRPRPRPIGCPRP	-0.111
RRIRMRPPRLPRPRPRPKRCPRP	0.211
RRIRIRPPRLPRPRPRPMNHPRP	-0.348
RRIRIRPPRLPRPRPRPMPRPRP	0.0826

Sequence	shrunken log2 fold change
RRIRARPPRLPRPRPRPSAEPRP	0.976
RRIRYRPPRLPRPRPRPLDMPRP	-0.151
RRIRDRPPRLPRPRPRPLWQPRP	0.316
RRIRMRPPRLPRPRPRPLKFPRP	0.426
RRIRFRPPRLPRPRPRPEIAPRP	-0.0213
RRIRMRPPRLPRPRPRPMCFPRP	0.271
RRIRQRPPRLPRPRPRPGIYPRP	-0.0206
RRIRWRPPRLPRPRPRPFEAPRP	0.253
RRIRCRPPRLPRPRPRPQCNPRP	-0.5
RRIRMRPPRLPRPRPRPVCIPRP	-0.0455
RRIRPRPPRLPRPRPRPIVGPRP	-0.00131
RRIRSRPPRLPRPRPRPFNWPRP	0.0339
RRIRLRPPRLPRPRPRPMINPRP	-0.224
RRIRGRPPRLPRPRPRPIAFPRP	0.8
RRIRLRPPRLPRPRPRPCRYPRP	-0.0582
RRIRMRPPRLPRPRPRPAREPRP	1.86
RRIRGRPPRLPRPRPRPAATPRP	3.06
RRIRWRPPRLPRPRPRPHHAPRP	-0.0735
RRIRFRPPRLPRPRPRPESFPRP	0.0272
RRIRHRPPRLPRPRPRPSDPPRP	-0.0545
RRIRKRPPRLPRPRPRPQKYPRP	-0.184
RRIRERPPRLPRPRPRPRRRPRP	0.261
RRIRARPPRLPRPRPRPHDLPRP	0.084
RRIRSRPPRLPRPRPRPACRPRP	0.212
RRIRHRPPRLPRPRPRPHVCPRP	0.00854

Sequence	shrunken log2 fold change
RRIRKRPPRLPRPRPRPLMTPRP	0.175
RRIRCRPPRLPRPRPRPFSFPRP	-0.513
RRIRVRPPRLPRPRPRPDSIPRP	-0.149
RRIRTRPPRLPRPRPRPQRFPRP	0.00548
RRIRWRPPRLPRPRPRPDHHPRP	-0.445
RRIRYRPPRLPRPRPRPKFSPRP	-0.434
RRIRRRPPRLPRPRPRPRPAPRP	1.83
RRIRERPPRLPRPRPRPLHAPRP	-0.0579
RRIRPRPPRLPRPRPRPPEYPRP	-0.558
RRIRTRPPRLPRPRPRPFPEPRP	-0.41
RRIRQRPPRLPRPRPRPNTMPRP	0.12
RRIRIRPPRLPRPRPRPEKDPRP	-0.0191
RRIRLRPPRLPRPRPRPGKDPRP	-0.153
RRIRYRPPRLPRPRPRPDFQPRP	-0.409
RRIRIRPPRLPRPRPRPFCEPRP	-0.23
RRIRLRPPRLPRPRPRPPKPPRP	0.555
RRIRERPPRLPRPRPRPFGVPRP	0.00331
RRIRRRPPRLPRPRPRPPLVPRP	1.23
RRIRWRPPRLPRPRPRPPPMPRP	0.72
RRIRRRPPRLPRPRPRPDQVPRP	0.0594
RRIRIRPPRLPRPRPRPHNYPRP	-0.376
RRIRTRPPRLPRPRPRPPKTPRP	0.142
RRIRYRPPRLPRPRPRPVIAPRP	-0.354
RRIRNRPPRLPRPRPRPDEPPRP	-0.061
RRIRFRPPRLPRPRPRPGVFPRP	-0.227

Sequence	shrunken log2 fold change
RRIRQRPPRLPRPRPRPHCNPRP	-0.11
RRIRRRPPRLPRPRPRPPCPPRP	0.641
RRIRARPPRLPRPRPRPFKHPRP	-0.27
RRIRFRPPRLPRPRPRPMDCPRP	0.00893
RRIRKRPPRLPRPRPRPSIKPRP	-0.004
RRIRPRPPRLPRPRPRPNPIPRP	-0.237
RRIRCRPPRLPRPRPRPAFTPRP	0.0636
RRIRIRPPRLPRPRPRPLEIPRP	-0.0939
RRIRQRPPRLPRPRPRPTTEPRP	0.26
RRIRLRPPRLPRPRPRPEYVPRP	0.102
RRIRSRPPRLPRPRPRPGRHPRP	0.0088
RRIRERPPRLPRPRPRPMKFPRP	-0.0657
RRIRQRPPRLPRPRPRPQGPPRP	0.189
RRIRHRPPRLPRPRPRPLWWPRP	0.237
RRIRARPPRLPRPRPRPFQAPRP	0.0111
RRIRHRPPRLPRPRPRPFFSPRP	-0.253
RRIRWRPPRLPRPRPRPLLWPRP	0.571
RRIRARPPRLPRPRPRPSYHPRP	-0.255
RRIRGRPPRLPRPRPRPNIGPRP	0.138
RRIRQRPPRLPRPRPRPGAKPRP	0.177
RRIRVRPPRLPRPRPRPVCAPRP	0.413
RRIRARPPRLPRPRPRPLTNPRP	0.303
RRIRTRPPRLPRPRPRPRLVPRP	0.0412
RRIRSRPPRLPRPRPRPDSAPRP	0.0412
RRIRYRPPRLPRPRPRPKSEPRP	-0.0489

Sequence	shrunken log2 fold change
RRIRQRPPRLPRPRPRPMSHPRP	0.00245
RRIRTRPPRLPRPRPRPWTHPRP	-0.0143
RRIRKRPPRLPRPRPRPCFNPRP	-0.0824
RRIRERPPRLPRPRPRPPERPRP	0.366
RRIRRRPPRLPRPRPRPPKVPRP	0.693
RRIRQRPPRLPRPRPRPSGPPRP	-0.0826
RRIRIRPPRLPRPRPRPHYRPRP	-0.204
RRIRTRPPRLPRPRPRPDIGPRP	-0.187
RRIRQRPPRLPRPRPRPYSMPRP	-0.031
RRIRLRPPRLPRPRPRPCKYPRP	-0.0018
RRIRCRPPRLPRPRPRPMNLPRP	-0.538
RRIRPRPPRLPRPRPRPTCLPRP	-0.105
RRIRQRPPRLPRPRPRPVLLPRP	-0.154
RRIRRRPPRLPRPRPRPFPTPRP	0.164
RRIRLRPPRLPRPRPRPNQVPRP	-0.294
RRIRFRPPRLPRPRPRPMALPRP	-0.706
RRIRHRPPRLPRPRPRPQPIPRP	-0.13
RRIRYRPPRLPRPRPRPVRIPRP	-0.053
RRIRERPPRLPRPRPRPVQQPRP	-0.168
RRIRNRPPRLPRPRPRPTAMPRP	0.285
RRIRNRPPRLPRPRPRPMTRPRP	-0.386
RRIRNRPPRLPRPRPRPTNMPRP	-0.753
RRIRTRPPRLPRPRPRPKTTPRP	0.0871
RRIRPRPPRLPRPRPRPEVAPRP	0.212
RRIRIRPPRLPRPRPRPKYQPRP	-0.615

Sequence	shrunken log2 fold change
RRIRFRPPRLPRPRPRPFALPRP	-0.00558
RRIRDRPPRLPRPRPRPSALPRP	0.162
RRIRCRPPRLPRPRPRPYSYPRP	-0.0951
RRIRPRPPRLPRPRPRPDACPRP	0.183
RRIRYRPPRLPRPRPRPLSFPRP	-1.04
RRIRKRPPRLPRPRPRPAWWPRP	0.577
RRIRRRPPRLPRPRPRPLIQPRP	0.256
RRIRYRPPRLPRPRPRPKFVPRP	-0.416
RRIRGRPPRLPRPRPRPYLGPRP	0.167
RRIRKRPPRLPRPRPRPQGWPRP	0.116
RRIRCRPPRLPRPRPRPLRKPRP	0.734
RRIRCRPPRLPRPRPRPHNMPRP	-0.82
RRIRARPPRLPRPRPRPQSHPRP	-0.162
RRIRVRPPRLPRPRPRPYSQPRP	0.0117
RRIRWRPPRLPRPRPRPMLDPRP	0.426
RRIRVRPPRLPRPRPRPIHTPRP	-0.305
RRIRVRPPRLPRPRPRPHMTPRP	-0.277
RRIRHRPPRLPRPRPRPFATPRP	0.106
RRIRERPPRLPRPRPRPKSCPRP	-0.00876
RRIRPRPPRLPRPRPRPHWAPRP	-0.0709
RRIRNRPPRLPRPRPRPWGIPRP	-0.199
RRIRSRPPRLPRPRPRPIKHPRP	-0.0703
RRIRPRPPRLPRPRPRPQLPPRP	0.0534
RRIRPRPPRLPRPRPRPINIPRP	-1.15
RRIRLRPPRLPRPRPRPEIRPRP	-0.0685
